The test system of data set [1] is HeLa Kyoto. Nature of the data set: melting temperature (median over replicates), in situ; higher = more thermally stable.
Data set [2] relates to HeLa Kyoto. Nature of the data set: solubility change mitosis vs G1/S (difference of NP-40 vs SDS log2 ratios) (log2 ratio difference); higher = more soluble in mitosis.
Data set [3] concerns HeLa Kyoto. Nature of the data set: thermal stability score vs G1/S (z-score of summed log2 fold changes over temperatures); higher = more thermally stable than in G1/S.
The subject of data set [4] is HeLa Kyoto. Nature of the data set: solubility in G1/S (NP-40 vs SDS abundance) (log2 ratio); higher = more soluble. Particulars: cell cycle stage: G1/S.
[5] abbreviates: cell cycle stage: early G1 (4.5 h after nocodazole release).
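Wherever melting temperature (median over replicates), in situ is given: HeLa Kyoto cells synchronized by double thymidine or nocodazole block, proteins quantified by TMT10plex mass spectrometry, three independent biological replicates.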
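Wherever solubility change mitosis vs G1/S (difference of NP-40 vs SDS log2 ratios) is given: synchronized HeLa Kyoto cells (double thymidine block for G1/S, nocodazole release for mitosis), protein amounts in NP-40 versus SDS lysates quantified by mass spectrometry, three biological replicates.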
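Wherever solubility in G1/S (NP-40 vs SDS abundance) is given: HeLa Kyoto cells arrested at G1/S by double thymidine block, proteins quantified by TMT10plex mass spectrometry in mild NP-40 versus SDS extracts, three biological replicates.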
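Wherever thermal stability score vs G1/S (z-score of summed log2 fold changes over temperatures) is given: synchronized HeLa Kyoto cells, proteins quantified by TMT10plex mass spectrometry, three biological replicates, mitosis taken 0.5 h after nocodazole release, G1/S directly after double thymidine block.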

“MIPNGYLMFEDENFIESSVAKLNALRKSGQFCDVRLQVCGHEMLAHRAVLACCSPYLFEIFNSDSDPHGISHVKFDDLNPEAVEVLLNYAYTAQLKADKELVKDVYSAAKKLKMDRVKQVCGDYLLSRMDVTSCISYRNFASCMGDSRLLNKVDAYIQEHLLQISEEEEFLKLPRLKLEVMLEDNVCLPSNGKLYTKVINWVQRSIWENGDSLEELMEEVQTLYYSADHKLLDGNLLDGQAEVFGSDDDHIQFVQKKPPRENGHKQISSSSTGCLSSPNATVQSPKHEWKIVASEKTSNNTYLCLAVLDGIFCVIFLHGRNSPQSSPTSTPKLSKSLSFEMQQDELIEKPMSPMQYARSGLGTAEMNGKLIAAGGYNREECLRTVECYNPHTDHWSFLAPMRTPRARFQMAVLMGQLYVVGGSNGHSDDLSCGEMYDSNIDDWIPVPELRTNRCNAGVCALNGKLYIVGGSDPYGQKGLKNCDVFDPVTKLWTSCAPLNIRRHQSAVCELGGYLYIIGGAESWNCLNTVERYNPENNTWTLIAPMNVARRGAGVAVLNGKLFVCGGFDGSHAISCVEMYDPTRNEWKMMGNMTSPRSNAGIATVGNTIYAVGGFDGNEFLNTVEVYNLESNEWSPYTKIFQF [IVNS1ABP]”: the melting temperature came to 50.7 °C with HeLa Kyoto [1] (cell cycle stage: G1/S) and 49.2 °C with HeLa Kyoto [1] (cell cycle stage: mitosis). The “solubility change mitosis (log2)” value with HeLa Kyoto [2] was -0.0597. The thermal stability score was -2.78 in the data set with HeLa Kyoto [3] (setting [5]) and -1.82 in the data set on HeLa Kyoto [3] (cell cycle stage: mitosis). Moreover, in the data set on HeLa Kyoto [4], the “solubility in G1/S (log2)” value is -0.0792.
As to “MIRRVLPHGMGRGLLTRRPGTRRGGFSLDWDGKVSEIKKKIKSILPGRSCDLLQDTSHLPPEHSDVVIVGGGVLGLSVAYWLKKLESRRGAIRVLVVERDHTYSQASTGLSVGGICQQFSLPENIQLSLFSASFLRNINEYLAVVDAPPLDLRFNPSGYLLLASEKDAAAMESNVKVQRQEGAKVSLMSPDQLRNKFPWINTEGVALASYGMEDEGWFDPWCLLQGLRRKVQSLGVLFCQGEVTRFVSSSQRMLTTDDKAVVLKRIHEVHVKMDRSLEYQPVECAIVINAAGAWSAQIAALAGVGEGPPGTLQGTKLPVEPRKRYVYVWHCPQGPGLETPLVADTSGAYFRREGLGSNYLGGRSPTEQEEPDPANLEVDHDFFQDKVWPHLALRVPAFETLKVQSAWAGYYDYNTFDQNGVVGPHPLVVNMYFATGFSGHGLQQAPGIGRAVAEMVLKGRFQTIDLSPFLFTRFYLGEKIQENNII [FOXRED1]”, the melting temperature in the data set on HeLa Kyoto [1] (cell cycle stage: G1/S) turned out to be 51.5 °C; with HeLa Kyoto [1] (cell cycle stage: mitosis), 51.6 °C. The “solubility change mitosis (log2)” value in the data set on HeLa Kyoto [2] was found to be 0.0476. Also, the thermal stability score was 1.19 in the data set on HeLa Kyoto [3] (setting [5]) and 0.0541 with HeLa Kyoto [3] (cell cycle stage: mitosis). Besides, in the data set with HeLa Kyoto [4], the “solubility in G1/S (log2)” value is -0.0625.
With “MIWYILIIGILLPQSLAHPGFFTSIGQMTDLIHTEKDLVTSLKDYIKAEEDKLEQIKKWAEKLDRLTSTATKDPEGFVGHPVNAFKLMKRLNTEWSELENLVLKDMSDGFISNLTIQRQYFPNDEDQVGAAKALLRLQDTYNLDTDTISKGNLPGVKHKSFLTAEDCFELGKVAYTEADYYHTELWMEQALRQLDEGEISTIDKVSVLDYLSYAVYQQGDLDKALLLTKKLLELDPEHQRANGNLKYFEYIMAKEKDVNKSASDDQSDQKTTPKKKGVAVDYLPERQKYEMLCRGEGIKMTPRRQKKLFCRYHDGNRNPKFILAPAKQEDEWDKPRIIRFHDIISDAEIEIVKDLAKPRLRRATISNPITGDLETVHYRISKSAWLSGYENPVVSRINMRIQDLTGLDVSTAEELQVANYGVGGQYEPHFDFARKDEPDAFKELGTGNRIATWLFYMSDVSAGGATVFPEVGASVWPKKGTAVFWYNLFASGEGDYSTRHAACPVLVGNKWVSNKWLHERGQEFRRPCTLSELE [P4HA1]”, the melting temperature in the data set with HeLa Kyoto [1] (cell cycle stage: G1/S) was found to be 55.3 °C; with HeLa Kyoto [1] (cell cycle stage: mitosis), 54.1 °C. In addition, in the data set with HeLa Kyoto [2], the “solubility change mitosis (log2)” value is -0.0564. The thermal stability score turned out to be 3.59 with HeLa Kyoto [3] (setting [5]) and 6.2 in the data set with HeLa Kyoto [3] (cell cycle stage: mitosis). In addition, the “solubility in G1/S (log2)” value with HeLa Kyoto [4] amounted to 0.216.
On to “MKAFHTFCVVLLVFGSVSEAKFDDFEDEEDIVEYDDNDFAEFEDVMEDSVTESPQRVIITEDDEDETTVELEGQDENQEGDFEDADTQEGDTESEPYDDEEFEGYEDKPDTSSSKNKDPITIVDVPAHLQNSWESYYLEILMVTGLLAYIMNYIIGKNKNSRLAQAWFNTHRELLESNFTLVGDDGTNKEATSTGKLNQENEHIYNLWCSGRVCCEGMLIQLRFLKRQDLLNVLARMMRPVSDQVQIKVTMNDEDMDTYVFAVGTRKALVRLQKEMQDLSEFCSDKPKSGAKYGLPDSLAILSEMGEVTDGMMDTKMVHFLTHYADKIESVHFSDQFSGPKIMQEEGQPLKLPDTKRTLLFTFNVPGSGNTYPKDMEALLPLMNMVIYSIDKAKKFRLNREGKQKADKNRARVEENFLKLTHVQRQEAAQSRREEKKRAEKERIMNEEDPEKQRRLEEAALRREQKKLEKKQMKMKQIKVKAM [CCDC47]”, for which the melting temperature in the data set with HeLa Kyoto [1] (cell cycle stage: G1/S) turned out to be 52.9 °C; in the data set with HeLa Kyoto [1] (cell cycle stage: mitosis), 52.7 °C. Moreover, in the data set with HeLa Kyoto [2], the “solubility change mitosis (log2)” value was determined as 0.000886. Moreover, the results for the thermal stability score with HeLa Kyoto [3] (setting [5]) and in the data set with HeLa Kyoto [3] (cell cycle stage: mitosis) were 0.286 and -1.13, respectively. Moreover, in the data set with HeLa Kyoto [4], the “solubility in G1/S (log2)” value is -0.0628.
In the case of “MKCFFPVLSCLAVLGVVSAQRQVTVQEGPLYRTEGSHITIWCNVSGYQGPSEQNFQWSIYLPSSPEREVQIVSTMDSSFPYAIYTQRVRGGKIFIERVQGNSTLLHITDLQARDAGEYECHTPSTDKQYFGSYSAKMNLVVIPDSLQTTAMPQTLHRVEQDPLELTCEVASETIQHSHLSVAWLRQKVGEKPVEVISLSRDFMLHSSSEYAQRQSLGEVRLDKLGRTTFRLTIFHLQPSDQGEFYCEAAEWIQDPDGSWYAMTRKRSEGAVVNVQPTDKEFTVRLETEKRLHTVGEPVEFRCILEAQNVPDRYFAVSWAFNSSLIATMGPNAVPVLNSEFAHREARGQLKVAKESDSVFVLKIYHLRQEDSGKYNCRVTEREKTVTGEFIDKESKRPKNIPIIVLPLKSSISVEVASNASVILEGEDLRFSCSVRTAGRPQGRFSVIWQLVDRQNRRSNIMWLDRDGTVQPGSSYWERSSFGGVQMEQVQPNSFSLGIFNSRKEDEGQYECHVTEWVRAVDGEWQIVGERRASTPISITALEMGFAVTAISRTPGVTYSDSFDLQCIIKPHYPAWVPVSVTWRFQPVGTVEFHDLVTFTRDGGVQWGDRSSSFRTRTAIEKAESSNNVRLSISRASDTEAGKYQCVAELWRKNYNNTWTRLAERTSNLLEIRVLQPVTKLQVSKSKRTLTLVENKPIQLNCSVKSQTSQNSHFAVLWYVHKPSDADGKLILKTTHNSAFEYGTYAEEEGLRARLQFERHVSGGLFSLTVQRAEVSDSGSYYCHVEEWLLSPNYAWYKLAEEVSGRTEVTVKQPDSRLRLSQAQGNLSVLETRQVQLECVVLNRTSITSQLMVEWFVWKPNHPERETVARLSRDATFHYGEQAAKNNLKGRLHLESPSPGVYRLFIQNVAVQDSGTYSCHVEEWLPSPSGMWYKRAEDTAGQTALTVMRPDASLQVDTVVPNATVSEKAAFQLDCSIVSRSSQDSRFAVAWYSLRTKAGGKRSSPGLEEQEEEREEEEEEDDDDDDDPTERTALLSVGPDAVFGPEGSPWEGRLRFQRLSPVLYRLTVLQASPQDTGNYSCHVEEWLPSPQKEWYRLTEEESAPIGIRVLDTSPTLQSIICSNDALFYFVFFYPFPIFGILIITILLVRFKSRNSSKNSDGKNGVPLLWIKEPHLNYSPTCLEPPVLSIHPGAID [IGSF3]”, the melting temperature in the data set on HeLa Kyoto [1] (cell cycle stage: G1/S) worked out at 54.3 °C; in the data set on HeLa Kyoto [1] (cell cycle stage: mitosis), 53.8 °C. For the same sequence, the “solubility change mitosis (log2)” value with HeLa Kyoto [2] was -0.047. Further, the figures for the thermal stability score with HeLa Kyoto [3] (setting [5]) and with HeLa Kyoto [3] (cell cycle stage: mitosis) were -2.57 and -2.96, respectively. Further, the “solubility in G1/S (log2)” value in the data set with HeLa Kyoto [4] is -0.0153.

The values are drawn from the supplement of paper PMC5998384.
